The source of these data is patent US20090291081A1 (AbbVie / Abbott, published 2009).

One test has as its target T1, human IL-1α (human, UniProt P01583 113-271).
T1 sequence (looked up): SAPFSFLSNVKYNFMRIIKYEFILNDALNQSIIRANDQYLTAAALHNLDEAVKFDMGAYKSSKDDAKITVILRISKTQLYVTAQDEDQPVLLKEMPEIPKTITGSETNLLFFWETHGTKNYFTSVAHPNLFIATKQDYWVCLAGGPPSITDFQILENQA
Put plainly: cell-based or functional assay.

Test [1] deals with human IL-1β (human, UniProt P01584 117-269). Put plainly: cell-based or functional assay.
For test [2], the target named is T2, human IL-1β (human, UniProt P01584 117-269).
T2 construct: antigen of the ABT2 dAbs; also called hIL-1β; IL-1 beta
Put plainly: IC50 column of Table 63; receptor binding assay presumed.

Test [3] deals with T2, human IL-1β. Put plainly: cell-based or functional assay. This is another data set of the same source.

B1: ABT2-108-533x/ABT1-122 hu IgG1/K wt (bispecific antibody, V domains shown)
VH: EVQLLESGGGLVQPGGSLRLSCAASGFTFADEGMMWVRQAPGKGLEWVSRIGQDGKNTYYADSVKGRFTISRDNSKNTLYLQMNSLRAEDTAVYYCAKYTGRILGHHLFDYWGQGTLVTVSS
VL: DIQMTQSPSSLSASVGDRVTITCRASQPIWTELNWYQQKPGKAPKLLIYGSSSLQSGVPRFSGSGSGTDFTLTISSLQPEDFATYYCQQFAYFPATFGQGTKVEIKR
Turning to B1, the “IL-1α IC50” value with human IL-1α is 1000 nM.

B2: ABT2-65/ABT1-141 hu IgG1/K wt (bispecific antibody, V domains shown)
VH: EVQLLESGGGLVQPGGSLRLSCAASGFTFEDYQMGWVRQAPGKGLEWVSSISAMGNRTYYADSVKGRFTISRDDSKNTLYLQMNSLRAEDTAVYYCAKNLVRTQSKMWMFDYWGQGTLVTVSS
VL: DIQMTQSPSSLSASVGDRVTITCRASQWIQKQLAWYQQKPGKAPKLLIYSSSYLQSGVPRFSGSGSGTDFTLTISSLQPEDFATYYCQQHLRVPFTFGQGTKVEIKR
Consider B2, for which, in the test with human IL-1β [1], the “IL-1β IC50” value turned out to be 100 nM. The “IL-1α IC50” value with human IL-1α was 7000 nM.

B3: ABT2-65-17/ABT1-212 hu IgG1/K wt (bispecific antibody, V domains shown)
VH: EVQLLESGGGLVQPGGSLRLSCVASGFTFEDYQMGWVRQAPGKGLEWVSSISAMGNRTYYADSVKGRFTISRDDSKNTLYLQMNSLRAEDTAVYYCAQNLVRLGRSRWMFDYWGQGTLVTVSS
VL: DIQMTQSPSSLSASVGDRVTITCRASQRINGNLRWYQQKPGKAPKLLIYSVSQLQSGVPSRFSGSGSGTDFTLTISSLQPEDFATYYCQQGYDWPPTFGQGTKVETKR
Consider B3, for which the “IL-1α IC50” value with human IL-1α stood at 100 nM.

B4: ABT2-65-89 (other)
VH: EVQLLESGGGLVQPGGSLRLSCVASGFTFEDYQMGWVRQAPGKGLEWVSSISAMGNRTYYADSVKGRFTISRDDSKNTLYLQMNSLRAEDTAVYYCAQNMVRLGRSRWMFDYWGQGTLVTVSS
notes: VH dAb
Broadly, the IC50 is the concentration that inhibits the measured activity by half. In the case of B4, the IC50 in the test with human IL-1β [2] stood at 10 nM. Moreover, in the test with human IL-1β [3], the “ND50” value worked out at 2 nM.

B5: ABT2-65-113 (other)
VH: EVQLLESGGGLVQPGGSLRLSCAASGFTFVQYQMGWVRQAPGKGLEWVSSISAMGNRTYYADSVKGRFTISRDDSKNTLYLQMNSLRAEDTAVYYCAQNLVRLGRSRWMFDYWGQGTLVTVSS
notes: VH dAb
In the test with human IL-1β [2], B5 gave a concentration for half-maximal inhibition (IC50) of 3.3 nM. Moreover, in the test with human IL-1β [3], the “ND50” value was 3 nM.

B6: ABT2-65-140 (other)
VH: EVQLLESGGGLVQPGGSLRLSCAASGFTFEDYQMGWVRQAPGKGLEWVSSISAMGNRTYYADSVKGRFTISRDDSKNTLYLQMNSLRAEDTAVYYCAENLVKISRRHWMFDYWGQGTLVTVSS
notes: VH dAb
In turn, B6 gave an IC50 in the test with human IL-1β [2] of 2 nM. For the same molecule, in the test with human IL-1β [3], the “ND50” value came to 1 nM.

B7: ABT2-65-85 (other)
VH: EVQLMESGGGLVQPGGSLRLSCVASGFTFEDYQMGWVRQAPGKGLEWVSSISAMGNRTYYADSVKGRFAISRDDSKNTLYLQMNSLRAKDTAVYYCAQNLVRLGRSRWMFDYWGQGTLVTVSS
notes: VH dAb
In the test with human IL-1β [2], B7 returned an IC50 of 7 nM. Moreover, in the test with human IL-1β [3], the “ND50” value came out at 2 nM.

B8: ABT2-65-166 (other)
VH: EVQLLESGGGLVQPGGSLRLSCAASGFTFEDYQMGWVRQAPGKGLEWVSSISAMGGRTYYADSVKGRFTISRDNSKNTLYLQMNSLRAEDTAVYYCAQNLVRLGRSRWMFDYWGQGTLVTVSS
As for B8, the IC50 in the test with human IL-1β [2] came out at 4 nM. Further, the “ND50” value with human IL-1β [3] came to 4 nM.

B9: ABT2-65-154 (other)
VH: EVQLLESGGGLVQPGGSLRLSCAASGFTFEDYQMGWVRQAPGKGLEWVSSISAMGNRTHYADSVKGRFTISRDDSKNTLYLQMNSLRAEDTAVYYCAQNLVRIRRTKWMFDYWGQGTLVTVSS
notes: VH dAb
B9 displayed a half-maximal inhibitory concentration (IC50) with human IL-1β [2] of 3 nM. The “ND50” value with human IL-1β [3] was found to be 1.5 nM.

B10: ABT2-108/ABT1-122-505 hu IgG1/K wt (bispecific antibody, V domains shown)
VH: EVQLLESGGGLVQPGGSLRLSCAASGFTFAEYTMMWVRQAPGKGLEWVSRIGQDGKNTYYADSVKGRFTISRDNSKNTLYLQMNSLRAEDTAVYYCAKYTGRVGVHHLFDYWGQGTLVTSS
VL: DIQMTQSPSSLSASVGDRVTITCRASQPIWTELNWYQQKPGKAPKLLIYGSSSLQSGVPSRFSGSGSGTDFTLTISSLQPEDFATYYCKQFAYFPATFGQGTKVEIKR
In the case of B10, in the test with human IL-1β [1], the “IL-1β IC50” value is 20 nM. The “IL-1α IC50” value in the test with human IL-1α is 2000 nM.

B11: ABT2-108-521/ABT1-122-511 hu IgG1/K wt (bispecific antibody, V domains shown)
VH: EVQLLESGGGLVQPGGSLRLSCAASGFTFAEYTMMWVRQAPGKGLEWVSRIGQDGKNTYYADSVKGRFTISRDNSKNTLYLQMNSLRAEDTAVYYCAKYTGRILGHHLFDYWGQGTLVTVSS
VL: DIQMTQSPSSLSASVGDRVTITCRASQPIWTELNWYQQKPGKAPKLLIYGSSSLQRGVPSRFSGSGSGTDFTLTISSLQPEDFATYYCKQFAYFPATFGQGTKVEIKR
B11: the “IL-1β IC50” value in the test with human IL-1β [1] came out at 0.16 nM. Further, the “IL-1α IC50” value with human IL-1α is 150 nM.

B12: ABT2-108/ABT1-122-555 hu IgG1/K wt (bispecific antibody, V domains shown)
VH: EVQLLESGGGLVQPGGSLRLSCAASGFTFAEYTMMWVRQAPGKGLEWVSRIGQDGKNTYYADSVKGRFTISRDNSKNTLYLQMNSLRAEDTAVYYCAKYTGRVGVHHLFDYWGQGTLVTSS
VL: DIQMTQSPSSLSASVGDRVTITCRASQPIWTELNWYQQKPGKTPKLLIYGSSSLQSGVPSRFSGSGSGTDFTLTISSLQPEDFATYYCQQFAYFPATFGQGTKVEIKR
As for B12, in the test with human IL-1β [1], the “IL-1β IC50” value worked out at 7 nM. For the same molecule, the “IL-1α IC50” value in the test with human IL-1α amounted to 70 nM.

B13: ABT2-108/ABT1-122-554 hu IgG1/K wt (bispecific antibody, V domains shown)
VH: EVQLLESGGGLVQPGGSLRLSCAASGFTFAEYTMMWVRQAPGKGLEWVSRIGQDGKNTYYADSVKGRFTISRDNSKNTLYLQMNSLRAEDTAVYYCAKYTGRVGVHHLFDYWGQGTLVTSS
VL: DIQMTQSPSSLSASVGDRVTITCRASQPIWTELNWYQQKPGKAPKLLIYGSSSLQSGVPSRFSGSGSGTDFTLTISSLQPEDFATYYCQQFAYFPATFGQETKVEIKR
As for B13, the “IL-1β IC50” value with human IL-1β [1] stood at 9 nM. For the same molecule, the “IL-1α IC50” value with human IL-1α stood at 150 nM.

B14: ABT2-108-620x/ABT1-122-750x huIgG1/K wt (bispecific antibody, V domains shown)
VH: EVQLLESGGGLVQPGGSLRLSCAASGFTFAEESWMWVRQAPGKGLEWVSRIGQDGKNTYYREDVKGRFTISRDNSKNTLYLQMNSLRAEDTAVYYCAKYTGRIMGHHLFDYWGQGTLVTVSS
VL: DIQMTQSPSSLSASVGDRVAITCSASQHIWTEISWYQQKPGKAPKLLIYGSASRQKGVPSRFSGSGSGTDFTLTISSLQPEDFATYYCKQFAYFPNTFGQGTKVEIKR
Consider B14, for which the “IL-1β IC50” value in the test with human IL-1β [1] was found to be 0.005 nM. The “IL-1α IC50” value with human IL-1α is 17.5 nM.

B15: ABT2-108/ABT1-122-508 hu IgG1/K wt (bispecific antibody, V domains shown)
VH: EVQLLESGGGLVQPGGSLRLSCAASGFTFAEYTMMWVRQAPGKGLEWVSRIGQDGKNTYYADSVKGRFTISRDNSKNTLYLQMNSLRAEDTAVYYCAKYTGRVGVHHLFDYWGQGTLVTSS
VL: DIQMTQSPSSLSASVGDRVTITCRASQPIWTELNWYQQKPGKAPKLLIYGSSSLQRGVPSRFSGSGSGTDFTLTISSLQPEDFATYYCQQFAYFPATFGQGTKVEIKR
As to B15, the “IL-1β IC50” value in the test with human IL-1β [1] was 20 nM. Further, the “IL-1α IC50” value with human IL-1α was found to be 400 nM.

B16: ABT2-108/ABT1-122-556 hu IgG1/K wt (bispecific antibody, V domains shown)
VH: EVQLLESGGGLVQPGGSLRLSCAASGFTFAEYTMMWVRQAPGKGLEWVSRIGQDGKNTYYADSVKGRFTISRDNSKNTLYLQMNSLRAEDTAVYYCAKYTGRVGVHHLFDYWGQGTLVTSS
VL: DIQMTQSPSSLSASVGDRVTITCRASQPIWTELNWYQQKPGKAPKLLIYGSSSLQSGVPSRFSGSGSGTDFTLTISSLQPEDFATYHCQQFAYFPATFGQGTKVEIKR
On to B16, for which the “IL-1β IC50” value with human IL-1β [1] was 15 nM. In addition, in the test with human IL-1α, the “IL-1α IC50” value is 150 nM.

B17: ABT2-108-620x/ABT1-122-750MT hu IgG1 wt (bispecific antibody, V domains shown)
VH: EVQLLESGGGLVQPGGSLRLSCAASGFTFAEESWMWVRQAPGKGLEWVSRIGQDGKNTYYREDVKGRFTISRDNSKNTLYLQMNSLRAEDTAVYYCAKYTGRIMGHHLFDYWGQGTLVTVSS
VL: DIQMTQSPSSLSASVGDRVTITCSASQHIWTEMSWYQQKPGKTPKLLIYGSASRQKGVPSRFSGSGSGTDFTLTISSLQPEDFATYYCKQFAYFPNTFGQGTKVEIKR
On to B17, for which the “IL-1β IC50” value in the test with human IL-1β [1] came to 0.00482 nM. The “IL-1α IC50” value in the test with human IL-1α amounted to 10.1 nM.

B18: ABT2-108-538x/ABT1-122-555 hu IgG1/K wt (bispecific antibody, V domains shown)
VH: EVQLLESGGGLVQPGGSLRLSCAASGFTFADEGMMWVRQAPGKGLEWVSRITYSGKNTYYADSVKGRFTISRDNSKNTLYLQMNSLRAEDTAVYYCAKYTGRILGHHLFDYWGQGTLVTVSS
VL: DIQMTQSPSSLSASVGDRVTITCRASQPIWTELNWYQQKPGKTPKLLIYGSSSLQSGVPSRFSGSGSGTDFTLTISSLQPEDFATYYCQQFAYFPATFGQGTKVEIKR
B18: the “IL-1β IC50” value with human IL-1β [1] turned out to be 0.015 nM. In the test with human IL-1α, the “IL-1α IC50” value stood at 25 nM.

B19: ABT2-108-620x/ABT1-122-512 huIgG1/K wt (bispecific antibody, V domains shown)
VH: EVQLLESGGGLVQPGGSLRLSCAASGFTFAEESWMWVRQAPGKGLEWVSRIGQDGKNTYYREDVKGRFTISRDNSKNTLYLQMNSLRAEDTAVYYCAKYTGRIMGHHLFDYWGQGTLVTVSS
VL: DIQMTQSPSSLSASVGDRVTITCRASQPIWTELNWYQQKPGKAPKLLIYGSAKRQRGVPSRFSGSGSGTDFTLTISSLQPEDFATYYCKQFAYFPATFGQGTKVEIKR
On to B19, for which, in the test with human IL-1β [1], the “IL-1β IC50” value came out at 0.006 nM. The “IL-1α IC50” value with human IL-1α came out at 150 nM.

B20: ABT2-108-620x/ABT1-122-750M hu IgG1 wt (bispecific antibody, V domains shown)
VH: EVQLLESGGGLVQPGGSLRLSCAASGFTFAEESWMWVRQAPGKGLEWVSRIGQDGKNTYYREDVKGRFTISRDNSKNTLYLQMNSLRAEDTAVYYCAKYTGRIMGHHLFDYWGQGTLVTVSS
VL: DIQMTQSPSSLSASVGDRVTITCSASQHIWTEMSWYQQKPGKAPKLLIYGSASRQKGVPSRFSGSGSGTDFTLTISSLQPEDFATYYCKQFAYFPNTFGQGTKVEIKR
In the case of B20, the “IL-1β IC50” value with human IL-1β [1] is 0.00555 nM. Also, in the test with human IL-1α, the “IL-1α IC50” value is 18.5 nM.
